This series can be described thus: amyloid nucleation score (Sup35N fusion, yeast selection) (log enrichment); library NNK2; higher = more nucleation; inactive = no reads after selection. A digest of the protocol:
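Sup35N fusions to peptides of 20 random codons were expressed in psi-negative yeast, induced 24 hours with 100 μM copper sulfate, and grown 7 days at 30°C on medium lacking adenine and uracil. Input and output plasmid inserts were sequenced by Illumina. The nucleation score is the DiMSum log enrichment of output over input reads, centred on the mode score of non-aggregating sequences. Sequences with under 100 input reads were excluded.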

± gives the uncertainty stated by the source.

For IFFALNSTPPYYIYPEFKLQ, the amyloid nucleation score entry was “inactive”. Under YHLGSSLLLCI stands “inactive”; under NSYVKVHSIVG, “inactive”; under RRAWGFLVMRVGTDPMMTGI, 0.196 ± 0.37.

GIPCGGMFCRIGS: the amyloid nucleation score was 0.524 ± 0.81. Under LFSYWSVYSGLREVGPYCMV stands 0.79 ± 0.21.

With YVRRVASGAFCMKFRSTIRR, the amyloid nucleation score turned out to be 1.98 ± 0.084. The result for SWYLFGPDR reads -0.433 ± 0.54; that for ESSVITGLWHV, -0.081 ± 0.8; that for NYMRVNWLLFSSSQPVICVG, 0.107 ± 0.79. The result for IAAMTFFMMCLTYCVLWIAW reads 1.71 ± 0.31; that for KQEHSYYNLDDLGHRGSEGA, -0.536 ± 1.1.

Substance ACRLVYNLGRVHLGNHSDIL returned an amyloid nucleation score of -0.225 ± 1.

As for QLWSAWWHTVKKTGRRWWHR, the amyloid nucleation score turned out to be 0.921 ± 0.19. SFRKILESWKDAYLYDPALT came in with an amyloid nucleation score of 0.113 ± 1.1. Under INSAGNLPQERTVLGYFHCS stands -1.44 ± 0.62.

In turn, LTGSFYQHNGMLSTPRHRCL gave an amyloid nucleation score of -0.547 ± 0.63. Under VRRLLEAFWARKFFLVAITQ stands -0.237 ± 0.79; under LIRKFRVVVMFSYVQVLPVI, 0.173 ± 1.1; under ILSARRCFAQMVFVLYQNLV, -0.171 ± 0.33. In turn, CSNYFLSEELRHSVEVGSES gave an amyloid nucleation score of 0.463 ± 0.18. Under NAFGTSFCEIMRR stands 1.22 ± 0.33; under TPFAHSGSWCNSERLVPRLV, 0.364 ± 0.33; under RRRHLGFGKSVEVE, -0.549 ± 0.34. Substance IVGCLGDGVRLL showed an amyloid nucleation score of -0.563 ± 0.29.

Take YEHLDIGNHKLGRCNRNFIA: the amyloid nucleation score was -0.191 ± 1.1. As for WSRKECG, the amyloid nucleation score was determined as 0.408 ± 0.4.

Turning to PVLIVLYDIGSCKERKE, the amyloid nucleation score turned out to be 0.134 ± 0.55. SPSSQSKVISCLRVS displayed an amyloid nucleation score of 0.611 ± 0.81. YLARASYS had an amyloid nucleation score of 0.258 ± 0.18. As to LYINGEISVVIRIWFGPLVV, the amyloid nucleation score was determined as 0.517 ± 0.53. The result for RWAFHCKSRDVFNMRKL reads “inactive”; that for CCVAGLFEWHWY, 8.409 ± 0.081. The result for ISCHLFLLALYGWNKCVCSV reads 0.114 ± 0.62; that for AMYFRVVLA, 1.25 ± 0.31. In turn, NDGYFVFDALFFHR yielded an amyloid nucleation score of -2.34 ± 0.75. SVLLRDMGILYVMRNYYWPL returned an amyloid nucleation score of -0.033 ± 0.76. Substance VRYDCYMPDMCFSRDHCWFE showed an amyloid nucleation score of 0.079 ± 0.55. The result for LWGVYD reads -0.212 ± 0.65.

With YLCLTFCNIDNLQVMFKSAY, the amyloid nucleation score was determined as 8.209 ± 0.034. The result for AELLYMFWACNFSWSMPL reads -0.986 ± 0.76; that for DEEGRVSPDVARLVAVICGA, 0.413 ± 0.39. Take GIGSQMWFT: the amyloid nucleation score was found to be 3.41 ± 0.053.

The substance HVYFSCAYWQPVYMYCCGKQ returned an amyloid nucleation score of 7.771 ± 0.059. Under QETFDFCM stands -1.65 ± 0.64.

In turn, TMYIWRL had an amyloid nucleation score of 6.58 ± 0.039. The result for ACHRFYLMKSML reads 1.28 ± 0.36; that for FIDDSDFKYSYSAQFVCLID, 4.91 ± 0.1; that for VWVRIQMWYDIMSSASQLYR, 0.446 ± 0.33. For SGTALTRAESSTLMFNRNYR, the amyloid nucleation score was found to be 0.106 ± 0.41. Regarding TFLIGTV, the amyloid nucleation score was -1.01 ± 0.5. Substance VQEERAFKWVR came in with an amyloid nucleation score of 0.44 ± 0.42. FIERILAVSCFAYFVKPSTV displayed an amyloid nucleation score of 5.44 ± 0.042. Under NDHSVHINYLIIGAIHNTVN stands 8.405 ± 0.065; under TSQQRAYITP, -0.703 ± 1; under PLCLSDNYMTIQSSSILNAH, -0.205 ± 0.41.

SQALCDGALYTHFAISSIDR: the amyloid nucleation score entry was “inactive”. The substance LSAVWLWVNFFQHMTNRC gave an amyloid nucleation score of -1.71 ± 0.76. Substance WVDGICCPPRSG came in with an amyloid nucleation score of 0.292 ± 0.29. As for FHKKAMIRSFCPKEIDLGSM, the amyloid nucleation score result was “inactive”.

Regarding QMTLVHK, the amyloid nucleation score was determined as 1.67 ± 0.39. The substance ESMGGEYQGGVFVG showed an amyloid nucleation score of 0.448 ± 0.38. LRFCSSSVISGLQFSSRVVE gave an amyloid nucleation score of -0.029 ± 1.1.

QGKNAFAGLGYMSHKRRMWG: the amyloid nucleation score is 0.686 ± 0.39.

LIGIARSRVYRVKECFVHGL: the amyloid nucleation score amounted to 0.519 ± 0.43. The result for AEAISQLEAMR reads 1.13 ± 0.39. The result for TMLFRRFYSFMSTL reads -0.053 ± 1. VYPFSLSVAYVNRLLYYTVQ: the amyloid nucleation score was determined as 2.14 ± 0.094. WSGDFLRYHCHAGDRCMMTM had an amyloid nucleation score of -0.78 ± 0.63. Turning to VAFGLMDQDIFSRRILTRSS, the amyloid nucleation score entry is “inactive”. On to FLAILWLFMLGKVSGCVDKW, for which the amyloid nucleation score was -0.155 ± 0.49.

In turn, YAIGDNAA returned an amyloid nucleation score of 0.111 ± 0.32. The result for WKVRISVFMLEAL reads 2.77 ± 0.075. The result for QGTQWFLLKVSAIVKQLRWT reads -0.317 ± 0.79; that for LRFFHQSL, “inactive”. For the substance HIFFTDKFGGYVFLYPDFVA, the amyloid nucleation score result was “inactive”. Under FKKAMHKPKSWAFSEKGRTN stands -1.27 ± 0.61; under SPCLVLL, 0.2 ± 0.28; under EQRGLASCLTIHHSRWCYTK, 0.025 ± 0.33. The result for HNVVRGFCLVFTIYHSGRTR reads 5.1 ± 0.082; that for LNMMFYYLRFRMHFRWMDC, -0.79 ± 0.38; that for RWSGPGCTLSTGMWTFIPQV, -0.145 ± 0.76.

Take FASFVSIGRVVLLYSPSCYQ: the amyloid nucleation score stood at 5.71 ± 0.059. Under STVFRQSLE stands 0.269 ± 0.22; under SDICRREMHNTAIFLALF, 1.56 ± 0.1. The result for RALVD reads -0.548 ± 1.1; that for VFTGNLICYMDGGTGFSCFQ, 9.018 ± 0.029; that for ILDLWIVESKCFTSNMLHWV, -0.424 ± 0.76. Regarding ILQYN, the amyloid nucleation score was -1.49 ± 0.62. Regarding MNFCGNRCPFSLYIPWTACV, the amyloid nucleation score was -0.664 ± 1.1. VLLLGVSVRHFKGLGVPTKR displayed an amyloid nucleation score of 5.06 ± 0.065. Substance FNKNDNYYSAR displayed an amyloid nucleation score of -0.753 ± 0.78.

Substance ALSSFIGVRNLQAQGHFTQI gave an amyloid nucleation score of 0.638 ± 0.36. In the case of LIIFTGYRCSLPFMSFF, the amyloid nucleation score was -0.945 ± 1. On to TSWCSIHTVMLYLFLIVCQY, for which the amyloid nucleation score entry was “inactive”. IYLTLNGILAICASRAWAAK: the amyloid nucleation score stood at 0.094 ± 0.77. Under TMWGNI stands -1.59 ± 0.48. As to MVLRKLTYILPTRLLGQRFL, the amyloid nucleation score entry is “inactive”. QNLSSLFKVYGTSSC displayed an amyloid nucleation score of -0.953 ± 0.38.

On to TLRIWYCWHDSAYTSSDHII, for which the amyloid nucleation score was determined as 1.45 ± 0.2. LGIVDRTFQSMPYVGWMMV had an amyloid nucleation score of 0.563 ± 0.36. DCYRPYWKVFIPLVIFGA registered an amyloid nucleation score of -0.076 ± 0.55.

For TTFMRVVLFAPVLYMYGKNR, the amyloid nucleation score stood at 5.492 ± 0.043. The result for WTWGALDRRSGLFEVGGMYF reads 0.449 ± 0.47; that for SDMLLVISWFSFVKNK, 4.05 ± 0.073. PNIIGKLGNLNSLVLC came in with an amyloid nucleation score of 0.382 ± 0.8.

For the substance VLSNNFWRMSNFWVRMRHTL, the amyloid nucleation score is -0.25 ± 0.63. Under IWLTVVESRFVTGVVGECYW stands 0.255 ± 0.45.

In the case of LLYQKKDEWLGASYSLQKLS, the amyloid nucleation score is -0.686 ± 0.37.

Consider HCRYWVCCQLLVILTYSEAF, for which the amyloid nucleation score result is “inactive”. Substance LSGDNCPRV came in with an amyloid nucleation score of -0.342 ± 0.49. For YLLSMVRKDPVSRVSLKKGW, the amyloid nucleation score was 0.566 ± 0.66. The result for SSFFPRQ reads -0.767 ± 0.76; that for AHQHWQRGFEEHPEIRFIHW, 4.29 ± 0.11; that for PFACYGFCRM, -1.29 ± 0.76. In turn, GSYYCIDVGASRRPVWILSA yielded an amyloid nucleation score of 0.855 ± 0.48.

In turn, GYYYLFFILG showed an amyloid nucleation score of 4.78 ± 0.075. The result for MVYELRRFRCLFITVSGVDS reads “inactive”; that for VGCFTRSIGHAM, 0.257 ± 0.23; that for MWINHDPGWRCYYLYFPFL, 3.59 ± 0.074. Under FYASLHNSFFSVLWTDMTFS stands -0.487 ± 1.1; under TVRANLKTRCMSRTTNQEHT, 1.85 ± 0.15.

The substance VFERDMLNWVSLSLDHCWCS came in with an amyloid nucleation score of 1.31 ± 0.36. Under AGVSLFVHGNL stands 4.45 ± 0.095; under TYKTGDACVLVLPPHMADPR, -0.446 ± 1.1. The result for HAGMIYILYVNLRRTSKRMG reads 3.86 ± 0.072; that for TSSCFDCSFNMEFLMVLVSF, 1.52 ± 0.2.

The substance RVTYDFFILWC gave an amyloid nucleation score of 4.465 ± 0.044.

FRLFVKNKGRELICDLWVCT yielded an amyloid nucleation score of -0.024 ± 1. The result for SWFRMSVWSSLRAHMNASNT reads -0.198 ± 0.28; that for HVLHCTYSQSSMEQLFCFNW, “inactive”. For QSLSSYHLNFSALRSVPWP, the amyloid nucleation score was 0.043 ± 0.38. Under WWVKTVLFKK stands -0.947 ± 0.78.

With KSVASVMVYYALRIPYHIEC, the amyloid nucleation score entry was “inactive”.

In the case of HCLIMGDNDGTLRTLGGR, the amyloid nucleation score was -0.104 ± 0.65. Under HFSYKPVEYPLFSRFKPVFN stands -0.025 ± 0.79; under ISDAKRNCRCRSLPILIMVW, 0.448 ± 0.24.

Consider LVLRRWMSVRYFMGLTMKVR, for which the amyloid nucleation score entry is “inactive”. Under GFRNCWKWPHWVLAPMLYNS stands 0.007 ± 1.1.
